Results reported in patent US6541450B1, “Parathyroid hormone analogues for the treatment of osteoporosis” (National Research Council of Canada, priority 1994, dated 2003).
Where a SMILES comes first, the peptide text is derived from it. Bridges are numbered along the chain shown (N, C = ends). Where no end group is shown, it is not given here. [ ]: non-standard residue; d: D form. Nle = CCCC[C@H](N)C(=O)O; Orn = NCCC[C@H](N)C(=O)O

T1: adenylyl cyclase, ROS 17/2 cells (Rattus norvegicus, UniProt P25961)
T1 sequence (P25961 27-591): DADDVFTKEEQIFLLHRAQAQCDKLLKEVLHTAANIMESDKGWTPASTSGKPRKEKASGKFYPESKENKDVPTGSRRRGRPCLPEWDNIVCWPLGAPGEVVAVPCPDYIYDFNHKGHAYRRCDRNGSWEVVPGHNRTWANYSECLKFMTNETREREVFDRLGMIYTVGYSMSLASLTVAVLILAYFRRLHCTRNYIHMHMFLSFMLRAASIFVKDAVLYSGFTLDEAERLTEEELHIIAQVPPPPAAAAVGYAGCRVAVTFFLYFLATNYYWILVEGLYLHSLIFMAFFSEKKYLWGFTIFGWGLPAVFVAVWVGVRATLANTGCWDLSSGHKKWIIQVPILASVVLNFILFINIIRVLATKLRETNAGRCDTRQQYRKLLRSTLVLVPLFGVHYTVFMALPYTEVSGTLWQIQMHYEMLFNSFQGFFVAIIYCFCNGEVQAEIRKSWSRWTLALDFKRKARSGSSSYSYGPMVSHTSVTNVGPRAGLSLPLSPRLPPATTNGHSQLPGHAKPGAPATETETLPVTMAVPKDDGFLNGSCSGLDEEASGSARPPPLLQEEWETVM

B1: [Leu^27]cyclo(Lys^22-Glu^26)-hPTH-(1-31)-NH2 (peptide)
peptide: SVSEIQLMHNLGKHLNSMERVKWLRELLQDV-NH2
modifications: lactam 22-26; N-terminus assumed
SMILES: CC[C@H](C)[C@H](NC(=O)[C@H](CCC(=O)O)NC(=O)[C@H](CO)NC(=O)[C@@H](NC(=O)[C@@H](N)CO)C(C)C)C(=O)N[C@@H](CCC(N)=O)C(=O)N[C@@H](CC(C)C)C(=O)N[C@@H](CCSC)C(=O)N[C@@H](Cc1c[nH]cn1)C(=O)N[C@@H](CC(N)=O)C(=O)N[C@@H](CC(C)C)C(=O)NCC(=O)N[C@@H](CCCCN)C(=O)N[C@@H](Cc1c[nH]cn1)C(=O)N[C@@H](CC(C)C)C(=O)N[C@@H](CC(N)=O)C(=O)N[C@@H](CO)C(=O)N[C@@H](CCSC)C(=O)N[C@@H](CCC(=O)O)C(=O)N[C@@H](CCCNC(=N)N)C(=O)N[C@H](C(=O)N[C@H]1CCCCNC(=O)CC[C@@H](C(=O)N[C@@H](CC(C)C)C(=O)N[C@@H](CC(C)C)C(=O)N[C@@H](CCC(N)=O)C(=O)N[C@@H](CC(=O)O)C(=O)N[C@H](C(N)=O)C(C)C)NC(=O)[C@H](CCCNC(=N)N)NC(=O)[C@H](CC(C)C)NC(=O)[C@H](Cc2c[nH]c3ccccc23)NC1=O)C(C)C
B2: [Cys^22, Cys^26, Leu^27]cyclo(Cys^22-Cys^26)-hPTH-(1-31)-NH2 (peptide)
peptide: SVSEIQLMHNLGKHLNSMERVCWLRCLLQDV-NH2
modifications: disulfide 22-26; N-terminus assumed
SMILES: CC[C@H](C)[C@H](NC(=O)[C@H](CCC(=O)O)NC(=O)[C@H](CO)NC(=O)[C@@H](NC(=O)[C@@H](N)CO)C(C)C)C(=O)N[C@@H](CCC(N)=O)C(=O)N[C@@H](CC(C)C)C(=O)N[C@@H](CCSC)C(=O)N[C@@H](Cc1c[nH]cn1)C(=O)N[C@@H](CC(N)=O)C(=O)N[C@@H](CC(C)C)C(=O)NCC(=O)N[C@@H](CCCCN)C(=O)N[C@@H](Cc1c[nH]cn1)C(=O)N[C@@H](CC(C)C)C(=O)N[C@@H](CC(N)=O)C(=O)N[C@@H](CO)C(=O)N[C@@H](CCSC)C(=O)N[C@@H](CCC(=O)O)C(=O)N[C@@H](CCCNC(=N)N)C(=O)N[C@H](C(=O)N[C@H]1CSSC[C@@H](C(=O)N[C@@H](CC(C)C)C(=O)N[C@@H](CC(C)C)C(=O)N[C@@H](CCC(N)=O)C(=O)N[C@@H](CC(=O)O)C(=O)N[C@H](C(N)=O)C(C)C)NC(=O)[C@H](CCCNC(=N)N)NC(=O)[C@H](CC(C)C)NC(=O)[C@H](Cc2c[nH]c3ccccc23)NC1=O)C(C)C
B3: [Cys^26, Cys^30, Leu^27]cyclo(Cys^26-Cys^30)-hPTH-(1-31)-NH2 (peptide)
peptide: SVSEIQLMHNLGKHLNSMERVEWLRCLLQCV-NH2
modifications: disulfide 26-30; N-terminus assumed
SMILES: CC[C@H](C)[C@H](NC(=O)[C@H](CCC(=O)O)NC(=O)[C@H](CO)NC(=O)[C@@H](NC(=O)[C@@H](N)CO)C(C)C)C(=O)N[C@@H](CCC(N)=O)C(=O)N[C@@H](CC(C)C)C(=O)N[C@@H](CCSC)C(=O)N[C@@H](Cc1c[nH]cn1)C(=O)N[C@@H](CC(N)=O)C(=O)N[C@@H](CC(C)C)C(=O)NCC(=O)N[C@@H](CCCCN)C(=O)N[C@@H](Cc1c[nH]cn1)C(=O)N[C@@H](CC(C)C)C(=O)N[C@@H](CC(N)=O)C(=O)N[C@@H](CO)C(=O)N[C@@H](CCSC)C(=O)N[C@@H](CCC(=O)O)C(=O)N[C@@H](CCCNC(=N)N)C(=O)N[C@H](C(=O)N[C@@H](CCC(=O)O)C(=O)N[C@@H](Cc1c[nH]c2ccccc12)C(=O)N[C@@H](CC(C)C)C(=O)N[C@@H](CCCNC(=N)N)C(=O)N[C@H]1CSSC[C@@H](C(=O)N[C@H](C(N)=O)C(C)C)NC(=O)[C@H](CCC(N)=O)NC(=O)[C@H](CC(C)C)NC(=O)[C@H](CC(C)C)NC1=O)C(C)C
B4: [Leu^27]cyclo(Asp^22-Orn^26)-hPTH-(1-31)-NH2 (peptide)
peptide: SVSEIQLMHNLGKHLNSMERVDWLR[Orn]LLQDV-NH2
modifications: lactam 22-26; N-terminus assumed
SMILES: CC[C@H](C)[C@H](NC(=O)[C@H](CCC(=O)O)NC(=O)[C@H](CO)NC(=O)[C@@H](NC(=O)[C@@H](N)CO)C(C)C)C(=O)N[C@@H](CCC(N)=O)C(=O)N[C@@H](CC(C)C)C(=O)N[C@@H](CCSC)C(=O)N[C@@H](Cc1c[nH]cn1)C(=O)N[C@@H](CC(N)=O)C(=O)N[C@@H](CC(C)C)C(=O)NCC(=O)N[C@@H](CCCCN)C(=O)N[C@@H](Cc1c[nH]cn1)C(=O)N[C@@H](CC(C)C)C(=O)N[C@@H](CC(N)=O)C(=O)N[C@@H](CO)C(=O)N[C@@H](CCSC)C(=O)N[C@@H](CCC(=O)O)C(=O)N[C@@H](CCCNC(=N)N)C(=O)N[C@H](C(=O)N[C@H]1CC(=O)NCCC[C@@H](C(=O)N[C@@H](CC(C)C)C(=O)N[C@@H](CC(C)C)C(=O)N[C@@H](CCC(N)=O)C(=O)N[C@@H](CC(=O)O)C(=O)N[C@H](C(N)=O)C(C)C)NC(=O)[C@H](CCCNC(=N)N)NC(=O)[C@H](CC(C)C)NC(=O)[C@H](Cc2c[nH]c3ccccc23)NC1=O)C(C)C
B5: [Leu^27]cyclo(Glu^22-Lys^26)-hPTH-(1-34)-OH (peptide)
peptide: SVSEIQLMHNLGKHLNSMERVEWLRKLLQDVHNF-OH
modifications: lactam 22-26; N-terminus assumed
SMILES: CC[C@H](C)[C@H](NC(=O)[C@H](CCC(=O)O)NC(=O)[C@H](CO)NC(=O)[C@@H](NC(=O)[C@@H](N)CO)C(C)C)C(=O)N[C@@H](CCC(N)=O)C(=O)N[C@@H](CC(C)C)C(=O)N[C@@H](CCSC)C(=O)N[C@@H](Cc1c[nH]cn1)C(=O)N[C@@H](CC(N)=O)C(=O)N[C@@H](CC(C)C)C(=O)NCC(=O)N[C@@H](CCCCN)C(=O)N[C@@H](Cc1c[nH]cn1)C(=O)N[C@@H](CC(C)C)C(=O)N[C@@H](CC(N)=O)C(=O)N[C@@H](CO)C(=O)N[C@@H](CCSC)C(=O)N[C@@H](CCC(=O)O)C(=O)N[C@@H](CCCNC(=N)N)C(=O)N[C@H](C(=O)N[C@H]1CCC(=O)NCCCC[C@@H](C(=O)N[C@@H](CC(C)C)C(=O)N[C@@H](CC(C)C)C(=O)N[C@@H](CCC(N)=O)C(=O)N[C@@H](CC(=O)O)C(=O)N[C@H](C(=O)N[C@@H](Cc2c[nH]cn2)C(=O)N[C@@H](CC(N)=O)C(=O)N[C@@H](Cc2ccccc2)C(=O)O)C(C)C)NC(=O)[C@H](CCCNC(=N)N)NC(=O)[C@H](CC(C)C)NC(=O)[C@H](Cc2c[nH]c3ccccc23)NC1=O)C(C)C
B6: [Leu^27]cyclo(Glu^22-Lys^26)-hPTH-(1-31)-OH (peptide)
peptide: SVSEIQLMHNLGKHLNSMERVEWLRKLLQDV-OH
modifications: lactam 22-26
B7: [Leu^27]cyclo(Glu^22-Lys^26)-hPTH-(1-30)-NH2 (peptide)
peptide: SVSEIQLMHNLGKHLNSMERVEWLRKLLQD-NH2
modifications: lactam 22-26; N-terminus assumed
SMILES: CC[C@H](C)[C@H](NC(=O)[C@H](CCC(=O)O)NC(=O)[C@H](CO)NC(=O)[C@@H](NC(=O)[C@@H](N)CO)C(C)C)C(=O)N[C@@H](CCC(N)=O)C(=O)N[C@@H](CC(C)C)C(=O)N[C@@H](CCSC)C(=O)N[C@@H](Cc1c[nH]cn1)C(=O)N[C@@H](CC(N)=O)C(=O)N[C@@H](CC(C)C)C(=O)NCC(=O)N[C@@H](CCCCN)C(=O)N[C@@H](Cc1c[nH]cn1)C(=O)N[C@@H](CC(C)C)C(=O)N[C@@H](CC(N)=O)C(=O)N[C@@H](CO)C(=O)N[C@@H](CCSC)C(=O)N[C@@H](CCC(=O)O)C(=O)N[C@@H](CCCNC(=N)N)C(=O)N[C@H](C(=O)N[C@H]1CCC(=O)NCCCC[C@@H](C(=O)N[C@@H](CC(C)C)C(=O)N[C@@H](CC(C)C)C(=O)N[C@@H](CCC(N)=O)C(=O)N[C@@H](CC(=O)O)C(N)=O)NC(=O)[C@H](CCCNC(=N)N)NC(=O)[C@H](CC(C)C)NC(=O)[C@H](Cc2c[nH]c3ccccc23)NC1=O)C(C)C

The molecules below were run against T1, adenylyl cyclase, ROS 17/2 cells (assay: Adenylyl cyclase stimulation, [3H]-cyclic AMP production in ROS 17/2 cells). Details: ROS 17/2 cells; concentration for half-maximal increase in AC activity; read-out: Adenylyl Cyclase (EC50).
Assay type: cell-based

`CCCC[C@H](NC(=O)[C@@H]1CCCCNC(=O)CC[C@H](NC(=O)[C@@H](NC(=O)[C@H](CCCNC(=N)N)NC(=O)[C@H](CCC(=O)O)NC(=O)[C@H](CCSC)NC(=O)[C@H](CO)NC(=O)[C@H](CC(N)=O)NC(=O)[C@H](CC(C)C)NC(=O)[C@H](Cc2c[nH]cn2)NC(=O)[C@H](CCCCN)NC(=O)CNC(=O)[C@H](CC(C)C)NC(=O)[C@H](CC(N)=O)NC(=O)[C@H](Cc2c[nH]cn2)NC(=O)[C@H](CCSC)NC(=O)[C@H](CC(C)C)NC(=O)[C@H](CCC(N)=O)NC(=O)[C@@H](NC(=O)[C@H](CCC(=O)O)NC(=O)[C@H](CO)NC(=O)[C@@H](NC(=O)[C@@H](N)CO)C(C)C)[C@@H](C)CC)C(C)C)C(=O)N[C@@H](Cc2c[nH]c3ccccc23)C(=O)N[C@@H](CC(C)C)C(=O)N[C@@H](CCCNC(=N)N)C(=O)N1)C(=O)N[C@@H](CC(C)C)C(=O)N[C@@H](CCC(N)=O)C(=O)N[C@@H](CC(=O)O)C(=O)N[C@H](C(N)=O)C(C)C` [[Nle^27]cyclo(Glu^22—Lys^26)—hPTH—(1-31)-NH2] (H-SVSEIQLMHNLGKHLNSMERVEWLRK[Nle]LQDV-NH2; lactam 22-26) gave an EC50 of 9 nM.

These molecules were tested against PTH receptor (rat (ROS 17/2 rat osteosarcoma cell …, UniProt P25961)) (assay: cell-based or functional assay). Details: not given.

Compared with B1, B2 is 4-fold higher in “Adenylyl Cyclase (EC50)” value: 4 nM for the first, 16 nM for the second.

First: B3
Second: B4
The “Adenylyl Cyclase (EC50)” value of the first is lower: 24 nM for the first, greater than 200 nM for the second.

B5 and B6 are within 1.5-fold of each other in “Adenylyl Cyclase (EC50)” value: 6 nM for the first, 7 nM for the second.

In the case of B7, the “Adenylyl Cyclase (EC50)” value is reported as 20 nM.
